Assays:
GATA-3 [1] = target: T1, GATA-3 (Homo sapiens, UniProt P23771 1-443); assay: competition; excess unlabeled mutant did not compete with biotin-G3RE1; protein source conflict as above; LightShift EMSA Optimization & Control Kit (Thermo 20148) per manufacturer, 6% DNA retardation gel; buffer, salt, pH and temperature not stated; settings: protein: commercial; label: none
GATA-3 [2] = target: T1, GATA-3; assay: competition; excess unlabeled mutant did not compete with biotin-G3RE2; protein source conflict as above; LightShift EMSA Optimization & Control Kit (Thermo 20148) per manufacturer, 6% DNA retardation gel; buffer, salt, pH and temperature not stated; settings: protein: commercial; label: none

T1 sequence (P23771 whole entry): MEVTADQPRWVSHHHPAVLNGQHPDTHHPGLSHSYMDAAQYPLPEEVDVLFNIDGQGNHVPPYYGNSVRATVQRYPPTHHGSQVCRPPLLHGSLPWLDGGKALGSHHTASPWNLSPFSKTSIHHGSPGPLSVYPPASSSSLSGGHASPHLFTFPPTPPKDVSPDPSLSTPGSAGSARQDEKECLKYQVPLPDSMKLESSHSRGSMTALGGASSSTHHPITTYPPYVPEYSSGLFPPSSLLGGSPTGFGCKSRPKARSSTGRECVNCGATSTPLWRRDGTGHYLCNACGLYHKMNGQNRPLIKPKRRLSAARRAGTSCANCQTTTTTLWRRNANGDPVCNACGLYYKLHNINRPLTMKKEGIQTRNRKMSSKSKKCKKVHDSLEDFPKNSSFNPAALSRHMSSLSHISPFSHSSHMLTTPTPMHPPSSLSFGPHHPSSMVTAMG

B1: mutant G3RE1 probe (dsDNA)
DNA 1: TAGGAAGCTCCCATGGCAATAGCCCT
DNA 2: AGGGCTATTGCCATGGGAGCTTCCTA
B1: no binding (GATA-3 [1]).

B2: mutant G3RE2 probe (dsDNA)
DNA 1: TAACTACCCCAGAGTTGAAGGAGTGA
DNA 2: TCACTCCTTCAACTCTGGGGTAGTTA
B2: no binding (GATA-3 [2]).
